“And” between values parts separate entries of the source, which are not always exact repeats. Equal values may be shown once. “Also recorded” adds a separate entry of the source. Read-outs that look alike come from different tables or passages of the source.
Tests used:
[1] = Steady-state DCPIP-dependent diaphorase (NADH oxidase) activity; format: biochemical; details: for K m ^NADH / k cat: steady-state, NADH donor, 95 μM DCPIP acceptor, 25°C, 50 mM potassium phosphate, pH 7.4 (table footnote); for k cat: n = 3, mean ± SD
Excerpt: […] When saturation profiles on the pyridine nucleotide concentration were observed, kinetic constants were estimated by fitting initial reaction rates at different coenzyme concentrations to the Michaelis-Menten equation: (2) ν/e=kcat NADH/KmNADH+NADH,ν/e=kcat/KmNADHNADH/1+kcat/KmNADHNADH/kcat, where v stands for the initial velocity, e is the enzyme concentration, Km^NADH is the Michaelis constant for the enzyme-NADH complex, kcat is the turnover number of the enzyme, and kcat/Km^NADH is the enzyme catalytic efficiency.

[2] = Stopped-flow reduction of hAIF∆1-101ox by NADH (hydride transfer); format: biochemical; details: for k HT/Kd^NADH / k HT / Kd: pre-steady-state, 25°C, pH 7.4; for k HT: hydride transfer from NADH to FAD, aerobic, 50 mM potassium phosphate; for Kd: transient hAIF∆1-101ox:NADH complex, read-out: K d ^NADH
Description: A SX18.MV stopped-flow spectrophotometer (Applied Photophysics Ltd., Surrey, UK), interfaced with the ProData-SX software and a photodiode array detector, was used to investigate the fast kinetic reduction of the hAIF variants by the NADH coenzyme. Samples of ~10 μM hAIF∆1-101ox were mixed with increasing concentrations of NADH (0.03-10 mM) under aerobic conditions in 50 mM potassium phosphate, pH 7.4, at 25 °C. The enzyme and NADH concentrations are the final ones obtained after mixing equal volumes of substrate and enzyme. Observed rate constants for the hydride transfer (HT) event (kobs) were calculated by global analysis and numerical integration methods (simultaneously using all spectral data in the 400-800 nm region along time evolution). A single-step model (A→B) best fitted to describe the overall reaction at all NADH concentrations assayed. Averaged kobs values at each NADH concentration were then fitted to the equation that describes the formation of an enzyme:substrate complex prior to the HT event: (3) kobs=kHTNADH/KdNADH+NADH+krev, where kHT is the limiting rate constant for HT from the pyridine nucleotide coenzyme to the FAD cofactor of hAIF, Kd^NADH is the dissociation constant of the transient hAIF∆1-101ox:NADH complex, and krev is the reaction constant for a potential overall reverse process.

[3] = Stopped-flow CTC formation on mixing photoreduced hAIF∆1-101 with NAD+; format: biochemical; details: for k CTC: hAIF∆1-101phrd variants mixed with NAD+; for k CTC / k CTC/Kd^NAD+ / Kd: anaerobic, 25°C, pH 7.4; for k CTC/Kd^NAD+: hAIF∆1-101phrd variants; for Kd: transient hAIF∆1-101phrd:NAD+ complex, read-out: K d ^NAD+
Description: Stopped-flow spectrophotometry was also used to evaluate the rate constants of CTC formation when mixing photoreduced hAIF∆1-101 (hAIF∆1-101phrd) with increasing concentrations of NAD^+ (0.125-5 mM) under anaerobic conditions. hAIF∆1-101phrd samples were obtained by photoreduction in the presence of 5 μM methyl viologen, 3 μM 5-deazariboflavin, and 20 mM EDTA. The assays were performed at 25 °C in 50 mM potassium phosphate, pH 7.4, under anaerobic conditions (obtained by several cycles of vacuum application and bubbling with O2 free argon). Data were global fitted to a single step model (A→B), and kobs were determined at the different NAD^+ concentrations assayed. These values were then fitted to the equation that describes the formation of a transient hAIF∆1-101phrd:NAD^+ complex prior to the CTC stabilization: (4) kobs=kCTCNAD^+/KdNAD++NAD^+, in which kCTC is the limiting rate constant for the rearrangement of the encounter complex to form the CTC, and Kd^NAD+ is the dissociation constant for the mentioned transient encounter complex.

[4] = Reactivity of the CTC towards molecular oxygen (CTC half-life); format: biochemical; details: 25°C, air saturated 50 mM potassium phosphate, pH 7.4
Description: The reactivity of the CTC towards molecular oxygen was monitored by full reduction of hAIF∆1-101 samples with NADH (1.5-fold the concentration of the protein) in 50 mM phosphate buffer, pH 7.4, and following their reoxidation in a Cary 100 spectrophotometer (Agilent, Santa Clara, CA). Absorption spectra were recorded at 25 °C until full oxidation of the flavin cofactor was achieved. For each time, the percent remaining of CTC versus reoxidation by molecular oxygen was estimated as ΔAt/ΔAmax, where ΔAmax is the difference between the minimum and the maximum absorbance at 700 nm, and ΔAt is the difference of each value at 700nm minus the minimum absorbance at 700 nm. The CTC half-life is the time at which 50% of CTC still remains.

CHCHD4 = molecular target: T1, CHCHD4 (Homo sapiens, UniProt Q8N4Q1); assay: ITC binary interaction with CHCHD4; format: binding; details: for Kd / ΔG / ΔH / -TΔS: 25°C, pH 7.4
T1 construct: His6 (N); made in house; host or cells: E. coli C41 (DE3)
T1 sequence (Q8N4Q1 1-142): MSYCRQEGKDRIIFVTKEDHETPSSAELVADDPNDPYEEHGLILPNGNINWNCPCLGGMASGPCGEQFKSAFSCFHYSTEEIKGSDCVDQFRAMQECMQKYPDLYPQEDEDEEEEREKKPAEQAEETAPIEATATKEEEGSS
Description: (§1) ITC assays were carried out using an Auto-iTC200 (MicroCal, Malvern-Panalytical, Malvern, UK) thermostated at 25 °C. Typically, […] protein partner and dsDNA samples—prepared as described below—were used to titrate ~10 μM hAIF∆1-101 variants. All solutions were degassed at 15°C for 1 min before each assay. A sequence of 2 μL injections of titrant solution every 150 s was programmed, and the stirring speed was set to 750 rpm. The association constant (Ka), the enthalpy of binding (ΔH), and the binding stoichiometry (N) were estimated through nonlinear least-squares regression of the experimental data employing a single-ligand binding site model implemented in Origin 7.0 (OriginLab, Northampton, MA). The dissociation constant (Kd), the free energy change (ΔG), and the entropy change (ΔS) were obtained from basic thermodynamic relationships.

CypA = molecular target: T2, CypA (Homo sapiens, UniProt P62937); assay: ITC binary interaction with CypA; format: binding; details: oxidized hAIF∆1-101 titrated with CypA, 25°C, pH 7.4
T2 construct: His6 (N); made in house; host or cells: E. coli C41 (DE3)
T2 sequence (P62937 whole entry): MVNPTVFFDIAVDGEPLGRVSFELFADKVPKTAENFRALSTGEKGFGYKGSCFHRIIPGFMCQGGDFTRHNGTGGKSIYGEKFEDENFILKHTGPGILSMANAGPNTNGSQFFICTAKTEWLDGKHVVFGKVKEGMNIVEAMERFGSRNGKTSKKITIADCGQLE
Description: as §1

dsDNA = assay: ITC binary interaction with dsDNA; format: binding; details: for Kd for DNA higher than WT: hAIFΔ1−101ox, binary complexes; for Kd: oxidized hAIF∆1-101 titrated with 15-bp dsDNA, 25°C, pH 7.4
Description: as §1
Since hAIF binds DNA unspecifically, a 0.5 mM dsDNA sample was prepared from 1 mM solutions of HPLC-purified forward and a reverse complementary 15-bp oligonucleotides (5′- GGT TAG TTA TGC GCG -3′; randomly designed) synthetized by Integrated DNA Technologies. The pair of oligonucleotides was mixed at an equimolar ratio and annealed by heating 1 min at 99°C and performing a 3 h temperature scanning from 95 to 25°C, decreasing 1°C each 3 min. 0.5 mM dsDNA stock solutions were obtained.

[5] = for T m CTC ^FAD − Tm^FAD: CTC state relative to oxidized state of the same variant; for ΔTm^FAD: variant relative to WT; for T m ^FAD: ~2 μM protein, 50 mM potassium phosphate; for ΔTm CTC^FAD: CTC state, variant relative to WT CTC
Description: Thermal denaturation curves were followed by changes in the FAD fluorescence emission upon its release from the protein by sample excitation at 450 nm. Curves were monitored from 10 °C to 90 °C with scan rates of 1°C/min, both in the absence and presence of a 100-fold excess of NADH. The curves for each variant were roughly normalized to values between 0 and 1 and globally fitted to a two-step process describing a single transition unfolding equilibrium (native (N)↔unfolded (U)) by using the following equation [23]: (1) Sobs=SN+mNT+SU+mUTe^−ΔG/RT/1+e^−ΔG/RT, in which Sobs is the measured protein signal at a given temperature (T). SN and SU are intercept at 0 K with the y-axis of the linear extrapolation for the native and unfolded pre- and posttransition regions, respectively, while mN and mU are the corresponding slopes. The stabilization Gibbs energy depends on temperature according to ΔG = ΔH(1 − 1/Tm) + ΔCP(T − Tm − Tln(T/Tm)), where ΔH is the unfolding enthalpy, Tm is the midtransition temperature, ΔCP is the unfolding heat capacity change, and R is the ideal gas constant.

[6] = steady-state DCPIP diaphorase reaction
[7] = CTC form (premixed with NADH 1:100) titrated with CHCHD4, ITC, read-out: K d
[8] = CTC form titrated with CHCHD4, ITC
[9] = oxidized hAIF∆1-101 titrated with CHCHD4, ITC
[10] = CTC hAIF∆1-101rd:NAD^+, 100-fold excess NADH
[11] = CTC hAIF∆1-101rd:NAD^+, 100-fold excess NADH, pH 7.4, ionic strength 150 mM
[12] = hAIF∆1-101ox, pH 7.4, ionic strength 150 mM

Substance	increase in turnover rate relative to WT [1, 6]	K m ^NADH [1] [µM]	k cat [1] [s⁻¹]	k HT/Kd^NADH [2] [M⁻¹ s⁻¹]	k HT [2] [s⁻¹]	Kd [2] [µM]	k CTC [3] [s⁻¹]	k CTC/Kd^NAD+ [3] [M⁻¹ s⁻¹]	decrease in Kd^NAD+ relative to WT ([3]; hAIF∆1-101phrd with NAD+)	Kd [3] [µM]	CTC half-life versus reoxidation by O2 [4] [min]	Kd (CHCHD4; [7]) [µM]	ΔG (CHCHD4; [8]) [kJ/mol]	ΔH (CHCHD4; [8]) [kJ/mol]	-TΔS (CypA) [kJ/mol]	ΔH (unfolding enthalpy) [5, 10] [kJ/mol]	T m CTC ^FAD [5, 11] [K]	T m CTC ^FAD − Tm^FAD [5] [K]	ΔH (unfolding enthalpy) [5, 12] [kJ/mol]	T m ^FAD [5, 12] [K]	also measured
W196A: W196A site-directed mutant of hAIF∆1-101; ox = oxidized, CTC = charge transfer complex with NAD+	~ 5 fold	25 ± 4	4.3 ± 0.2	117000 ± 5300	126 ± 1	1070 ± 40	30 ± 1	76000 ± 10000	~ 5 fold	394 ± 50	62	0.5	-34.7	-24.7	-146	711 ± 17	326 ± 1	0	431 ± 13	326 ± 1	higher affinity for the NADH substrate relative to WT ([2]; stopped-flow, NADH): ~ 5 fold; Kd (CHCHD4; oxidized hAIF∆1-101 titrated with CHCHD4, ITC, 50 mM potassium phosphate, listed as W196Aox, read-out: K d): ~0.4 µM and 0.4 µM; -TΔS (CHCHD4; [9]): -75.3 kJ/mol; ΔG (CHCHD4; [9]): -35.1 kJ/mol; ΔH (CHCHD4; [9]): 40.2 kJ/mol; ΔG (CypA): -31.8 kJ/mol; ΔH (CypA): 114 kJ/mol; Kd for DNA higher than WT (dsDNA): ~ 4 fold; Kd (dsDNA): 5.8 µM; ΔTm^FAD ([5]; hAIF∆1-101ox): −11 ± 2 K
W196L: W196L site-directed mutant of hAIF∆1-101	~ 3 fold	187 ± 18	2.8 ± 0.1	21000 ± 3000	36 ± 1	1720 ± 210	29 ± 2	67000 ± 18000	~ 5 fold	433 ± 11	32	–	–	–	–	665 ± 17	324 ± 1	−2 ± 2	494 ± 13	326 ± 1	decrease in Km^NADH relative to WT [1, 6]: ~ 3 fold; efficiency oxidizing NADH relative to WT [1, 6]: ~ 8 times; ΔTm CTC^FAD [5]: 0 K; ΔTm^FAD ([5]; hAIF∆1-101ox): −11 ± 2 K
W196Y: W196Y site-directed mutant of hAIF∆1-101; ox = oxidized, CTC = charge transfer complex with NAD+	~ 3 fold	505 ± 35	2.7 ± 0.1	4000 ± 800	12 ± 1	2870 ± 320	16 ± 1	87000 ± 14000	~ 11 fold	183 ± 27	42	2.1	-31.4	-34.3	-104	699 ± 17	323 ± 1	−6 ± 2	515 ± 13	329 ± 1	efficiency oxidizing NADH relative to WT [1, 6]: ~ 3 times; efficiency as hydride acceptor from NADH relative to WT ([2]; stopped-flow, NADH): ~ 12 fold; decrease in kCTC relative to WT ([3]; hAIF∆1-101phrd with NAD+): less than 3 fold; -TΔS (CHCHD4; [8]): 2.9 kJ/mol; Kd for CHCHD4 higher relative to WT CTC (CHCHD4; CTC form, ITC): ~ 10 fold; Kd (CHCHD4; oxidized hAIF∆1-101 titrated with CHCHD4, ITC, 50 mM potassium phosphate, listed as W196Yox): heat exchange was not observed; also recorded: No detected binding; ΔG (CypA): -33.1 kJ/mol; ΔH (CypA): 71.1 kJ/mol; Kd for DNA higher than WT (dsDNA): ~ 4 fold; Kd (dsDNA): 6.9 µM; ΔTm CTC^FAD [5]: −1 ± 2 K; ΔTm^FAD ([5]; hAIF∆1-101ox): −8 ± 2 K
WT: wild-type human apoptosis-inducing factor, soluble form hAIF∆1-101 (UniProtKB O95831); ox = oxidized, CTC = NADH-reduced charge transfer complex	–	495 ± 170	0.9 ± 0.1	400 ± 100	1.5 ± 0.1	4090 ± 300	45 ± 2	22000 ± 3000	–	2080 ± 250	72	0.2	-36.4	-84.1	72	628 ± 17	324 ± 1	−13 ± 2	536 ± 13	337 ± 1	-TΔS (CHCHD4; [8]): 47.7 kJ/mol; Kd (CHCHD4; oxidized hAIF∆1-101 titrated with CHCHD4, ITC, 50 mM potassium phosphate, listed as WTox): heat exchange was not observed; also recorded: No detected binding; ΔG (CypA): -30.5 kJ/mol; ΔH (CypA): -103 kJ/mol; Kd (dsDNA): 1.6 µM

From paper PMC7822688, “W196 and the β-Hairpin Motif Modulate the Redox Switch of Conformation and the Biomolecular Interaction Network of the Apoptosis-Inducing Factor” (Oxidative Medicine and Cellular Longevity, 2021)
